T1: glyoxylase (negative control protein) (Homo sapiens, UniProt Q04760 Q04760:2-184)
T1 sequence: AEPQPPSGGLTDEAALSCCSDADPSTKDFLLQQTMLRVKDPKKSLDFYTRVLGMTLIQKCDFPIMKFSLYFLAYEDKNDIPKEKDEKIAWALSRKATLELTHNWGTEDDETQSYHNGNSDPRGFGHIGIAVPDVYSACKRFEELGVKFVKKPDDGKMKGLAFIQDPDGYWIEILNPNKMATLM

B1: B1 (ssRNA)
RNA: GGGAGGACGAUGCGGUCUGUUGUGCUUGAUAUGCCCCAGACGACUCGCCCGA
B2: C1 (ssRNA)
RNA: GGGAGGACGAUGCGGCUGUCUACCUUCUACUGCCGCAGACGACUCGCCCGA
B3: D1 (ssRNA)
RNA: GGGAGGACGAUGCGGAUGUAUGUUGGGAGCCACGCCAGACGACUCGCCCGA
B4: E1 (ssRNA)
RNA: GGGAGGACGAUGCGGUCCUGUCGUCUGUUCGUCCCCAGACGACUCGCCCGA

Each binder was assayed against T1, glyoxylase (negative control protein) (assay: FP; specificity control, room temperature). Details: tags: His-tag; label: 5'-FAM.
Procedure: (§1) FIG. 3. Binding of HER2-aptamers to recombinant HER2-ECD protein. RNA aptamers labeled with FAM at the 5′ end were incubated with recombinant rat HER2-ECD protein in increasing concentrations up to 1 μM at room temperature for 30 minutes in 100 μL reaction volumes. A non-target protein (glyoxylase) is used as a negative control in these assays (Control protein). The binding reaction is performed in the buffer in which the selection was performed. Fluorescence polarization (FP) values for each RNA concentration are read using an Analyst HT plate reader by LJL Biosystems. FP is given by P=(V−H)/(V+H), where V is the vertical component of polarized light, and H is the horizontal component of polarized light. Values of polarization range from 0 to 500 mP, with 0 mP being no binding of the RNA and 500 mP representing maximal binding. The curve is fit with a one-site binding model using non-linear regression software. This confirms the binding of the HER2 aptamers to […] HER2 using Fluorescence Polarization. […] This experiment was done several times and was reproducible.
(§2) The inventors next verified that several of the internalizing aptamers were binding specifically to HER2 using fluorescence polarization (FP). This was done by measuring binding of the RNAs to recombinant purified rat HER2-ECD (extra cellular domain) (FIG. 3). […] A control protein (human glyoxylase) was used as a negative control for binding in these studies.

Row | Binder | binding result
1 | GGGAGGACGAUGCGGGACUGUAUGGGGCUCUGUGCAGACGACUCGCCCGA (ssRNA) [A2] | no binding
2 | B1 | no binding
3 | B2 | no binding
4 | B3 | no binding
5 | B4 | no binding

What follows are binders tested against HER2 extracellular domain (HER2-ECD) (Rattus norvegicus, UniProt P06494 P06494:23-654) (assay: FP; selection buffer, room temperature 30 min, protein up to 1 uM). Details: label: 5'-FAM.
HER2 extracellular domain (HER2-ECD), sequence (P06494 23-654, one chain of several): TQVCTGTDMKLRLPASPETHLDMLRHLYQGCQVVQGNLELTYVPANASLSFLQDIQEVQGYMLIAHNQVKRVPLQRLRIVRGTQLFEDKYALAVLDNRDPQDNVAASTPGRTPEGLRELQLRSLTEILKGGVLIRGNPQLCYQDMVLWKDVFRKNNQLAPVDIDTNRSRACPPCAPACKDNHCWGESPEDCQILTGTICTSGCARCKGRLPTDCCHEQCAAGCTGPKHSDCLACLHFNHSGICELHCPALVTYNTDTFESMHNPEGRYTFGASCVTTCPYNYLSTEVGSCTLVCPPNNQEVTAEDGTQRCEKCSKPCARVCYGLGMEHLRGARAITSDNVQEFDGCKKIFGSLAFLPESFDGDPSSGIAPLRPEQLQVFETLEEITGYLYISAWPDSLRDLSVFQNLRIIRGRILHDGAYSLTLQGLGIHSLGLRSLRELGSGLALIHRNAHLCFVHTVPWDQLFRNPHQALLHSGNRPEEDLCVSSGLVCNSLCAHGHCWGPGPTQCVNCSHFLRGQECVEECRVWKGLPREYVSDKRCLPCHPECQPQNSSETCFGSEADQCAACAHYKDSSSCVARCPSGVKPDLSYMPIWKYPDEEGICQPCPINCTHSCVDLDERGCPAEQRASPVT
Procedure: as §1, §2

Row | Binder | binding result
6 | GGGAGGACGAUGCGGGACUGUAUGGGGCUCUGUGCAGACGACUCGCCCGA (ssRNA) [A2] | binds
7 | B1 | binds
8 | B2 | binds
9 | B3 | binds
10 | B4 | binds
